Assay: soluble on expression in E. coli; label from the status in PepcDB or PDB records
With “GMINQERLVNEFMELVQVDSETKFEAEICKVLTKKFTDLGVEVFEDDTMAVTGHGAGNLICTLPATKDGVDTIYFTSHMDTVVPGNGIKPSIKDGYIVSDGTTILGADDKAGLASMFEAIRVLKEKNIPHGTIEFIITVGEESGLVGAKALDRERITAKYGYALDSDGKVGEIVVAAPTQAKVNAIIRGKTAHAGVAPEKGVSAITIAAKAIAKMPLGRIDSETTANIGRFEGGTQTNIVCDHVQIFAEARSLINEKMEAQVAKMKEAFETTAKEMGGHADVEVNVMYPGFKFADGDHVVEVAKRAAEKIGRTPSLHQSGGGSDANVIAGHGIPTVNLAVGYEEIHTTNEKIPVEELAKTAELVVAIIEEVAK” the “soluble on expression in E. coli” value was “soluble”. In the case of “MSTKPPIERIMYIQMRTSLEMFRSDLVDLEALANAAKEALEQLPYIPKEPCGKGEDDPLSGPESALRTGRLCGLVCCTATAAENALSTCSKLIDWAYANEPDGVDDAVLADDDDDDDDDDEGGGNGANGGGGTNGGGDGSNGSGNGSPPDGGGVGAAPSPGRGELAETRPSRSGVALDLTPAPAPAGTPVA”, the “soluble on expression in E. coli” value is reported as “not soluble”. In the case of “MKGLYFQQSSTDEEITFVFQEKEDLPVTEDNFVKLQVKACALSQINTKLLAEMKMKKDLFPVGREIAGIVLDVGSKVSFFQPDDEVVGILPLDSEDPGLCEVVRVHEHYLVHKPEKVTWTEAAGSIRDGVRAYTALHYLSHLSPGKSVLIMDGASAFGTIAIQLAHHRGAKVISTACSLEDKQCLERFRPPIARVIDVSNGKVHVAESCLEETGGLGVDIVLDAGVRLYSKDDEPAVKLQLLPHKHDIITLLGVGGHWVTTEENLQLDPPDSHCLFLKGATLAFLNDEVWNLSNVQQGKYLCILKDVMEKLSTGVFRPQLDEPIPLYEAKVSMEAVQKNQGRKKQVVQF”, the “soluble on expression in E. coli” value is reported as “soluble”. For “SVIGRIHSFESCGTVDGPGIRFITFFQGCLMRCLYCHNRDTWDTHGGKEVTVEDLMKEVVTYRHFMNASGGGVTASGGEAILQAEFVRDWFRACKKEGIHTCLDTNGFVRRYDPVIDELLEVTDLVMLDLKQMNDEIHQNLVGVSNHRTLEFAKYLANKNVKVWIRYVVVPGWSDDDDSAHRLGEFTRDMGNVEKIELLPYHELGKHKWVAMGEEYKLDGVKPPKKETMERVKGILEQYGHKVMF”, the “soluble on expression in E. coli” value was “soluble”. With “MCLLTFAYQTNKRFPFVFAANRDEYYDRPTLFAHEWKEDPNVIGGRDLKKGGTWLGFTKEGKIAALTNVRDSFKHSGIPFQSRGFIVQDYLTSNTSAQLFMERLIQTADEFDGYNLVFGSYHDLYYYTNRMEKGEKLKPGYYMLSNGQMNSHWPKAVKVRTHLQSVLEREQDIETIIKKLLAIMQDEERFPDEQLPDTGVGIEWERILSPIFINGKTYGTRATTVIICTDEGESFFLEWNYGPMGIFLEKREFHIQLPSSYLNMKKDYELEHHHHHH” the “soluble on expression in E. coli” value was “not soluble”. For “MGSDKIHHHHHHMAFIQPDLQFNPDTLDNLVIGIAADMGEHDSGAHHHSKAQLLYASAGCMRFYLADTQVVLPPTRAAWLPAGVVHHVTMRNVAAYRSLYFEPETVASLPSRVTIFHVNPLLKALIDTMSFWPWDKPRQSQHNAFSLLCEELENATAENLVLPLPQDKRLKTWLKQLQQKKQPANLKKMAIEIGASERTISRIFNAQTGMAYQAWRQQWRLLSAIEQLAAGASVAQVGFNLQFSSDSAFISFFKQYTGTTPAQYFKSPSV”, the “soluble on expression in E. coli” value was “not soluble”. With “MAELTETSPETPETTEAIRAVEAFLNALQNEDFDTVDAALGDDLVYENVGFSRIRGGRRTATLLRRMQGRVGFEVKIHRIGADGAAVLTERTDALIIGPLRVQFWVCGVFEVDDGRITLWRDYFDVYDMFKGLLRGLVALVVPSLKATL” the “soluble on expression in E. coli” value was “soluble”. With “MGSDKIHHHHHHMSIQTSDPNETSDLKSLSLIAAHSHITGLGLDENLQPRPTSEGMVGQLQARRAAGVILKMVQNGTIAGRAVLVAGPPSTGKTALAMGVSQSLGKDVPFTAIAGSEIFSLELSKTEALTQAFRKSIGIKIKEETELIEGEVVEIQIDRSITGGHKQGKLTIKTTDMETIYELGNKMIDGLTKEKVLAGDVISIDKASGKITKLGRSFARSRDYDAMGADTRFVQCPEGELQKRKTVVHTVSLHEIDVINSRTQGFLALFTGDTGEIRSEVRDQINTKVAEWKEEGKAEIVPGVLFIDEVHMLDIECFSFINRALEDEFAPIVMMATNRGVSKTRGTNYKSPHGLPLDLLDRSIIITTKSYNEQEIKTILSIRAQEEEVELSSDALDLLTKTGVETSLRYSSNLISVAQQIAMKRKNNTVEVEDVKRAYLLFLDSARSVKYVQENESQYIDDQGNVQISIAKSADPDAMDTTE” the “soluble on expression in E. coli” value was “not soluble”. With “MYGTEQIISGTIIAGPEILPIEGYICVKNGIITEIGEERTNSKNIIAPCFVNAHTHLGDSVCKDPVLGKTSGFRVQRDLDSLVKPPDGLKHRILRETPYKTLVGHIKRSLLDMIDTGTCAFADFREGGFLGVAALNKALEGLELRSLIFGRPAEPDLPLQVVLSEVRRILLRSDGLGMSGANDLDMNLLQEITACTRERKKLFAIHAGEKNRSDIEKALSLEPDLLIHLTHAGKKDLDEIAQAKIPVVVCPRSNFVTGAGMAPIAEMLEAGIRVAAGTDNVMLNSVNMFAEMEFMSKIFSIDDRQVFKICTLNGSFVMGPDSMCSIEKGNKANLMILNGDSNNLAGIQDPVGGITKRARPDDILAVLHS” the “soluble on expression in E. coli” value was “not soluble”. For “MGHHHHHHSHMKRMAENELSRSVNEFLSKLQDDLKEAMNTMMCSRCQGKHRRFEMDREPKSARYCAECNRLHPAEEGDFWAESSMLGLKITYFALMDGKVYDITEWAGCQRVGISPDTHRVPYHISFGSRIPGTRGRQRATPDAPPADLQDFLSRIFQVPPGQMPMGTSLQLLSLPLEPLQPLSPTAQYPREKPNLSGGRK”, the “soluble on expression in E. coli” value was “not soluble”. In the case of “MSRVPRTFAGWTEQMSSSGKMYYYNKKTEISQWDKPAEWPAEGGSAERDKPKGGVNEKPRFAEDRYNEYIGQLSSSSSCFWRQIGIFSLSSSSKYYLCASRFLPLSHSLLQFLREIRRRL”, the “soluble on expression in E. coli” value is reported as “not soluble”. With “MRIHSPYPASWALAQRIGYLYSEGEIIYLADTPFERLLDIQRQVGQCQTMTSLSQADFEARLEAVFHQNTGESQQIAQDIDQSVDLLSLSEEMPANEDLLNEDSAAPVIRLINAILSEAIKETASDIHIETYEKTMSIRFRIDGVLRTILQPNKKLAALLISRIKVMARLDIAEKRIPQDGRISLRIGRRNIDVRVSTLPSIYGERAVLRLLDKNSLQLSLNNLGMTAADKQDLENLIQLPHGIILVTGPTGSGKSTTLYAILSALNTPGRNILTVEDPVEYELEGIGQTQVNTRVDMSFARGLRAILRQDPDVVMVGEIRDTETAQIAVQASLTGHLVLSTLHTNSASGAVTRLRDMGVESFLLSSSLAGIIAQRLVRRLCPQCRQFTPVSPQQAQMFKYHQLAVTTIGTPVGCPHCHQSGYQGRMAIHEMMVVTPELRAAIHENVDEQALERLVRQQHKALIKNGLQKVISGDTSWDEVMRVASATLESEA” the “soluble on expression in E. coli” value was “not soluble”. With “MTNPWEVSDAEYQKNFAMFGQLTGGQPFMDAVTARNALMRSNLPTQVLSQIWALSDLDKDGRLDIREYSIAMRLALNCLAGIPIPPQLPPSLLVVPARNAPPTWPGSRHGSVDYSQTLPPAIDRRMSQSYIPSAPVSIAGTPSSRHNSISAGSPLNNDRNVFEGRQLENWAIPHHNKLKYSQLFNALDKERLGSLSSQVGRSALGLSGLPTNVLAHIWFLSDVNKDGKLSVDEYAISQYMIEMFKSGFALPKITPLELVRMCGISSRSANNTPELEPGAEPPQKSPAPKTFEDKRQDNLSKGQAELERRRRVLEEEEQRRRAEVEKKEREEEAKKNRERQEKERQAEVERQAELERQRIIEAQREEEEKKRRLEMERRREEDEKMRKVQMEKAKVKQMQVQMPEQKKWNFYNQKQQENERLAQRQQREKTLQFQLQALDEKVIDVEVDIGKAKEAVAEVTGFIERMRSTRDEKVARIKELQETNQKTAIESQELGHQLLQKQSAHKETTQRKSELEALRRKRDAIRKAIEDAALELSTEKEKSYNQTEILKTNKEKYKTDVYSKLVAKREEYRNSFELLVHAQTHARSKIGEFEAKSAPASAAPAPAPAPAPTTTNGFPANFNDAFGEFDKTDASQRFDADFGATSTADPFAQIAQAPAHSKGAVDQSAFNIHDTYKCRALFAFEARSEDELSFEPGDVIIVFQSHAAEPGWRAGQLREKVGWFPEAFVEAIAAVPTPGGDPPIQNMPPNMTPSSSVDQIGVKAARKAEIAAAMGLTEGGAPPASSAPAAAAVISQCIAQFQWRARNEEDLSFAKGDTIEVLEKQEMKWKGRNPAGEIGWFPKSYVKEVGATTSTTTPIVSPSKASAGAPGAAAGAQYDVVPSDVTLQASETAPQQQLYTVIYDFEAVETTDLALHVGDTILVLEKNDEWWKGRCNGREGIFPANYVEISVQQAGDPTPPTQAPTPAAPPTVLCEAKVVVDFVASAPNQLGIKVGEIVKIREKSAAGWWEGELIRNGKPIAGWFPGEYVKVLEEAASPATRATAVYDYEASQPDELGFKTGDVIIVTDKSEAEWWSGHREQDPSKSGLFPSNYVQQQ” the “soluble on expression in E. coli” value was “not soluble”. For “MAKITVGTENQAPIEIYYEDHGTGKPVVLIHGWPLSGRSWEYQVPALVEAGYRVITYDRRGFGKSSQPWEGYEYDTFTSDLHQLLEQLELQNVTLVGFSMGGGEVARYISTYGTDRIEKVVFAGAVPPYLYKSEDHPEGALDDATIETFKSGVINDRLAFLDEFTKGFFAAGDRTDLVSESFRLYNWDIAAGASPKGTLDCITAFSKTDFRKDLEKFNIPTLIIHGDSDATVPFEYSGKLTHEAIPNSKVALIKGGPHGLNATHAKEFNEALLLFLKD”, the “soluble on expression in E. coli” value was “not soluble”. With “AAASFGQTKIPRGNGPYSVGCTDLMFDHTNKGTFLRLYYPSQDNDRLDTLWIPNKEYFWGLSKFLGTHWLMGNILRLLFGSMTTPANWNSPLRPGEKYPLVVFSHGLGAFRTLYSAIGIDLASHGFIVAAVEHRDRSASATYYFKDQSAAEIGDKSWLYLRTLKQEEETHIRNEQVRQRAKECSQALSLILDIDHGKPVKNALDLKFDMEQLKDSIDREKIAVIGHSFGGATVIQTLSEDQRFRCGIALDAWMFPLGDEVYSRIPQPLFFINSEYFQYPANIIKMKKCYSPDKERKMITIRGSVHQNFADFTFATGKIIGHMLKLKGDIDSNVAIDLSNKASLAFLQKHLGLHKDFDQWDCLIEGDDENLIPGTNINTTNQHI” the “soluble on expression in E. coli” value was “soluble”. With “MGSDKIHHHHHHMLKMPSLKAVKSFVAAAKYQSFTRAAEALCVTQAAISRQIRELEAYMGVELFKRVGRAVELTEAGSAFFDAAQLSFVNISQAAKRVGAYKAGKSEVTLCCSAAFAALWLSPKLPGFFNDNQDIDLNLISTQNFLSMEPGVTPDIFITKFSSVHSGYRSYPLFHDVIFPVCTPRYRDEHPELATLEGLRDSALLNLSPYGRAQVAEHIDWGVWLAFHDTDIEKRTHNRPHVFSANDYNVVINMTLANQGVALGWSHLVAESLEKGALVRPIQKEVVHKDSQHYLAFKVDRESDRGCCRLRDWLLSHFA” the “soluble on expression in E. coli” value was “not soluble”. In the case of “TSDDHVPVDITDLLDRAAHDAARIYPDLDVSLVPSPTCIIVGLPAGLRLAVDNAIANAVKHGGATLVQLSAVSSRAGVEIAIDDNGSGVPEGERQVVFERFSRGSTASHSGSGLGLALVAQQAQLHGGTASLENSPLGGARLVLRLPGPS”, the “soluble on expression in E. coli” value is reported as “soluble”. With “GPRRLSIEGNIAVGKSTFVKLLTKTYPEWHVATEPVATWQNIQAAGNQKACTAQSLGNLLDMMYREPARWSYTFQTFSFLSRLKVQLEPFPEKLLQARKPVQIFERSVYSDRYIFAKNLFENGSLSDIEWHIYQDWHSFLLWEFASRITLHGFIYLQASPQVCLKRLYQRAREEEKGIELAYLEQLHGQHEAWLIHKTTKLHFEALMNIPVLVLDVNDDFSEEVTKQEDLMREVNTFVKNL” the “soluble on expression in E. coli” value was “soluble”.

Reference: the DeepSol protein solubility set
